US20120277164A1 (IMPERIAL INNOVATIONS, published 2012)
Square brackets hold non-standard residues; d marks the D form. * marks the point of attachment. Cbz = O=C(OCc1ccccc1)*

Columns and labels:
[1] = target: T1, Gadd45β/MKK7 complex (biotin-hGadd45β with coated GST-MKK7, ELISA format) (human) (UniProt O75293); experiment: derived from the in vitro ELISA competition IC50 (Gadd45β/MKK7)
T1 sequence (biotinylated (sites not stated), looked up) 1: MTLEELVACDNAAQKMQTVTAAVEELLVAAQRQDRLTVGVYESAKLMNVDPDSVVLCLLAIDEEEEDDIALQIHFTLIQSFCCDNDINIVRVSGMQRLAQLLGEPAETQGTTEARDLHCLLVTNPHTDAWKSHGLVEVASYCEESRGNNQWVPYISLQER
T1 sequence (biotinylated (sites not stated), looked up) 2: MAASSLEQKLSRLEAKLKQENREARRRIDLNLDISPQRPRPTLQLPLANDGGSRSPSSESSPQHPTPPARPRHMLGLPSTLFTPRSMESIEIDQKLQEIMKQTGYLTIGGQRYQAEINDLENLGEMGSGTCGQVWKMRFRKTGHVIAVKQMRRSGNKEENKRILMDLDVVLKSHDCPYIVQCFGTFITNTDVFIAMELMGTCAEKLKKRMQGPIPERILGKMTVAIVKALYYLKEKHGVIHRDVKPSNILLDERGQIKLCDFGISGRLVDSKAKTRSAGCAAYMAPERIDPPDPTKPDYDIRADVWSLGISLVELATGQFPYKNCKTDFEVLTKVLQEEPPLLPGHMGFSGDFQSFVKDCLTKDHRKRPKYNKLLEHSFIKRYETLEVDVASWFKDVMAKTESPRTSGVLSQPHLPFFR

[2] = target: T1, Gadd45β/MKK7 complex (biotin-hGadd45β with coated GST-MKK7, ELISA format) (human); experiment: ELISA competition assay: coated MKK7, soluble biotin-hGadd45β; peptide pre-incubated 48 hr with human serum at 37° C.; after 48-hr incubation with human serum at 37° C.
[3] = target: T1, Gadd45β/MKK7 complex (biotin-hGadd45β with coated GST-MKK7, ELISA format) (human); experiment: competition ELISA; coated GST-MKK7 42 nM, biotin-hGadd45β 21 nM
[4] = target: T1, Gadd45β/MKK7 complex (biotin-hGadd45β with coated GST-MKK7, ELISA format) (human); experiment: competition ELISA after 48-hr pre-incubation of the peptide with human serum at 37 °C
[5] = target: T1, Gadd45β/MKK7 complex (biotin-hGadd45β with coated GST-MKK7, ELISA format) (human); experiment: competition ELISA; coated MKK7, biotin-hGadd45β (FIG. 3C)
[6] = target: T2, Gadd45β/MKK7 complex (biotin-hGadd45β with coated GST-MKK7, ELISA format) (human, UniProt O75293 1-160; O14733 1-419, biotinylated (sites not given)); experiment: competition ELISA; coated GST-MKK7, biotin-hGadd45β; single dose
T2 construct: not shown: glutathione S-transferase (GST) fusion partner
T2 sequence (looked up) 1: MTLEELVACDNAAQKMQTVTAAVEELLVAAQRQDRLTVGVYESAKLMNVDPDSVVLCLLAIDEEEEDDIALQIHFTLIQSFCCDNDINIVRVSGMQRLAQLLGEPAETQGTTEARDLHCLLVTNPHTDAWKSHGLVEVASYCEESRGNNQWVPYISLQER
T2 sequence (looked up) 2: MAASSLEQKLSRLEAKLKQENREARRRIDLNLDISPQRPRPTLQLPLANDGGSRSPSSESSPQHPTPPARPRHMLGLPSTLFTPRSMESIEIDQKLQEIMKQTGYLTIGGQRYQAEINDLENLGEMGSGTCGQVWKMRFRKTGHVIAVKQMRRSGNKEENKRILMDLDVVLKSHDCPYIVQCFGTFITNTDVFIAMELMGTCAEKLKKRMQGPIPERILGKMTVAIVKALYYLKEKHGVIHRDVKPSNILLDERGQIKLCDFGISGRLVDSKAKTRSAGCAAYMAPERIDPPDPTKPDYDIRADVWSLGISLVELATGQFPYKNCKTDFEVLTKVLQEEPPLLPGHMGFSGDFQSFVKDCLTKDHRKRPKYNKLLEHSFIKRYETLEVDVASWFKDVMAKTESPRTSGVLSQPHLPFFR

[7] = target: T2, Gadd45β/MKK7 complex (biotin-hGadd45β …); experiment: ELISA competition: coated GST-MKK7 (42 nM), soluble biotin-hGadd45β (21 nM), increasing peptide; read-out % binding of biotin-hGadd45β to MKK7
[8] = target: T3, MKK7KD (constitutively active kinase domain of MKK7, residues 101 to 405, S287D and T291D, His6 fusion) (UniProt O14733-3 101-405); experiment: SPR (Biacore 3000), Gadd45β immobilized, MKK7KD injected at 1-25 nM
T3 construct: range 101-405; also called MKKKD; not shown: His6 tag
T3 sequence (looked up): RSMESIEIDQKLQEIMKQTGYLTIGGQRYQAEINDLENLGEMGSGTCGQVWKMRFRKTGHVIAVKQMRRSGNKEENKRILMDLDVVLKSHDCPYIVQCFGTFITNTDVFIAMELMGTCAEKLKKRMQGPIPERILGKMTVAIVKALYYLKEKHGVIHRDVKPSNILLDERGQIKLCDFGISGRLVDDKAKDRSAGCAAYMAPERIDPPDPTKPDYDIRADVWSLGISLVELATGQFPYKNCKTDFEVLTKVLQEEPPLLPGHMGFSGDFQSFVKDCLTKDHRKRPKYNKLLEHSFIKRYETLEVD
Experimental: On another channel the same procedure of activation with EDC/NHS and inactivation with ethanolamine was performed.

[9] = target: T3, MKK7KD (constitutively active kinase …); experiment: SPR (Biacore 3000), MKK7KD immobilized, Gadd45β injected at 20-200 nM

B1: Z-DTP2 (Z-D-Tyr-D-Glu-D-Arg-D-Phe-NH2) (peptide)
peptide: Cbz-[dY][dE][dR][dF]-NH2
Which results are given for B1?
Ligand Efficiency [1]: -0.26; IC50 [2]: 0.18 nM; IC50 [3]: 0.19 nM; IC50 [4]: 0.18 nM

B2: Z-Tyr-Asp-His-Phe-NH2 (Z-DTP1) (peptide)
peptide: Cbz-[dY][dD][dH][dF]-NH2
Which results are given for B2?
IC50 [2]: 0.19 nM; IC50 [3]: 0.22 nM; IC50 [4]: 0.19 nM

B3: DTP1, Acetyl-(D-Tyr)-(D-Asp)-(D-His)-(D-Phe)-NH2 (peptide)
peptide: Ac-[dY][dD][dH][dF]-NH2
SMILES: CC(=O)N[C@H](Cc1ccc(O)cc1)C(=O)N[C@H](CC(=O)O)C(=O)N[C@H](Cc1c[nH]cn1)C(=O)N[C@H](Cc1ccccc1)C(N)=O
With B3 as the binder, how does the IC50 [5] read?
The IC50 was 0.22 nM.

B4: DTP2, Acetyl-(D-Tyr)-(D-Glu)-(D-Arg)-(D-Phe)-NH2 (peptide)
peptide: Ac-[dY][dE][dR][dF]-NH2
SMILES: CC(=O)N[C@H](Cc1ccc(O)cc1)C(=O)N[C@H](CCC(=O)O)C(=O)N[C@H](CCCNC(=N)N)C(=O)N[C@H](Cc1ccccc1)C(N)=O
How did the IC50 [5] turn out when B4 was run?
The IC50 was 0.19 nM.

B5: Ac-YDHF-NH2 (peptide)
peptide: Ac-YDHF-NH2
notes: also called Ac-LTP1; LTP1
For B5, which “% Inhibition of Gadd45β-MKK7 binding” value [6] is on record?
The value was 94%.

What about the IC50 [7] of the same binder?
The IC50 was 0.4 nM.

B6: Ac-YERF-NH2 (peptide)
peptide: Ac-YERF-NH2
notes: also called Ac-LTP2; LTP2
Which “% Inhibition of Gadd45β-MKK7 binding” value [6] does the source give for B6 here?
The value was 93%.

What about the IC50 [7] of the same binder?
Its IC50 is 0.4 nM.

B7: Full length human Gadd45β (other, UniProt O75293 1-160, looked up)
chain: MTLEELVACDNAAQKMQTVTAAVEELLVAAQRQDRLTVGVYESAKLMNVDPDSVVLCLLAIDEEEEDDIALQIHFTLIQSFCCDNDINIVRVSGMQRLAQLLGEPAETQGTTEARDLHCLLVTNPHTDAWKSHGLVEVASYCEESRGNNQWVPYISLQER
notes: also called Gadd45β (SPR)
Which Kd [8] does the source give for B7 here?
The Kd was 3.4 nM.

What about the Kd [9] of the same binder?
The Kd was 4 nM.
